Assay results as given in PMC5146279, “Atomic structure of the innexin-6 gap junction channel determined by cryo-EM” (Nature Communications, 2016).

Tests used:
[1] = biological target: the molecule itself; test: cryo-EM structure; INX-6 hemichannel (docked class) by single-particle analysis, 74,398 particles, C8 symmetry, 3.3 Å; sample after GraDeR, 10 mM Tris pH 7.5, 500 mM NaCl
[2] = biological target: the molecule itself; test: cryo-EM structure; INX-6 gap junction channel by single-particle analysis, 35,608 particles, D8 symmetry, 3.6 Å; sample after GraDeR, 10 mM Tris pH 7.5, 500 mM NaCl

B1: Caenorhabditis elegans innexin-6 (INX-6) wild type (natural protein, UniProt Q9U3N4 1-389, looked up)
chain: MASQVGAINSVNALISRVFVQPKGDLADRLNSRVTVVILAVSSALLLSSHFIGDPITCWTPAQFNAQWVNFVNQYCFVHGTYFVPLDQQLAFEEEERTKVSIQYYQWVPYVFALQAFLFYIPRFIWKAMIAYSGYDLAAAVKYVDRFWSENRDKDDKFKTRLAAFEGRPSVYIWDGIRLARKKRSRNMALFYTLSTVWQAVNAWIQFYILTQLLDSSIYTLWGPSILGDLLQGNDWQTTGHFPRIVHCDFNRRRPASVQLDTVLCVLTLNIYYEKLFIFLWFWLVFVAVVSTVNCFKWIYYLCNKTKAQKTIKNYLSTAPIKSTISDDQFFSALGEDGLFIMDQMALNLGDIPASYLTISMRNICQDFIESEDYIDEERTPFVKSIKHT
notes: Innexin-6 (INX-6), C. elegans, wild type; Eight copies form a hemichannel and 16 copies the docked gap junction channel; also called INX-6 WT; INX-6 hemichannel; source: Sf9 cells infected with recombinant virus, purified (Ni-NTA, tag digested, gel filtration, GraDeR); not shown: GFP, C-terminal, cleaved; His8, C-terminal, cleaved; copies: 16
[1]
  stoichiometry N: 8
[2]
  stoichiometry N: 16
